Data taken from patent publication US20220372137A1 (OXFORD BIOTHERAPEUTICS, published 2022).
Blank lines part the entries; values can stand above or below the binder they belong to.

Tests used:
[1] = biological target: T1, human SLAMF6 expressed on the cell surface (Raji cells, human PBMCs, T cells) (human, UniProt Q96DU3 22-332); assay: flow cytometry on SLAMF6-expressing Raji cells, goat anti-mouse secondary antibody
T1 construct: Endogenous SLAMF6 on human cells; also called NTB-A; CD352
T1 sequence: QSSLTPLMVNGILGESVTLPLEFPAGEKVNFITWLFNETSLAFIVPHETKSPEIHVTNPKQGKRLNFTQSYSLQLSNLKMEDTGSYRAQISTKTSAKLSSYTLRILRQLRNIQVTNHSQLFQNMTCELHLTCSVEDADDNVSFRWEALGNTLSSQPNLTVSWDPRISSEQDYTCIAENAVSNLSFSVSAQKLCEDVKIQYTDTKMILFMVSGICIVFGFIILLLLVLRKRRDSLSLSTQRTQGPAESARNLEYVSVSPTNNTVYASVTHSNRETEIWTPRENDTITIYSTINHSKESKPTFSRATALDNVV
Experimental: […] Raji cells were placed in each well of a 96 well plate and washed 1× with FACS buffer (DPBS, 2% FBS). The cells were pelleted by spinning for 5 min at 1200 rpm. The pellet was washed 1× with FACS buffer (DPBS, 2% FBS) and again pelleted by spinning for 5 min at 1200 rpm and resuspended in FACS buffer. The test antibody were diluted to 30 nM/l in FACS buffer and increasing amounts as shown in FIG. 4 added to each well which was incubated for 30 min on ice. The cells were then washed 1× with FACS buffer (DPBS, 2% FBS) and pelleted, washed and resuspended in FACS buffer. Secondary goat-anti-mouse antibody was diluted to 1 μg·ml and 100 μl added to each well the plate was incubated for 30 min on ice then washed 1× with FACS buffer (DPBS, 2% FBS). The cells were pelleted and resuspended in 200 ul FACS buffer. Samples were read using the Guava Easycyte Plus HT flow cytometer and results analysed using the Guava Cytosoft software suite.

[2] = biological target: T2, Antigen flowed over the chip in the Biacore experiment (SLAMF6, construct not stated) (Homo sapiens (Human), UniProt Q96DU3 22-226, limits assumed); assay: SPR, Biacore T-200 at 25 °C; antibody captured on goat anti-human IgG, antigen flowed over
T2 sequence: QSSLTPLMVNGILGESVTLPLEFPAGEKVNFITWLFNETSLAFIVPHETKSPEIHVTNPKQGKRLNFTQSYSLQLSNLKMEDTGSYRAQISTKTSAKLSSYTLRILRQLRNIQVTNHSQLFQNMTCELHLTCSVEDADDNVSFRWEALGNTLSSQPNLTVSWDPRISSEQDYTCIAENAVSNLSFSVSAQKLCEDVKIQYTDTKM
Experimental: Flow cells 2, 3 and 4 of the CM5 chip were coated with maximum amounts 500 RU of goat anti-human IgG. Test Ab were captured on flow cells 2, 3 and 4. Flow cell 1 was kept blank and used for reference subtraction. Antigen was flowed over the chip. Binding of antigen to the antibodies was monitored in real time. From the observed kₒₙ and koff, KD was determined.

[3] = biological target: T1, human SLAMF6 expressed on the cell …; assay: flow cytometry on human PBMCs pre-blocked with 300 nM SLAMF6 ECD-mIgG2a Fc fusion protein, goat anti-human IgG-RPE secondary antibody
Experimental: Cryopreserved human PBMCs were thawed and washed once by suspension in FACS buffer (DPBS with 2% FCS) followed by centrifugation for 5 minutes at 1200 rpm to pellet cells and discarding of supernatant (same method used for subsequent washes). The cells were dispensed into a 96-well assay plate at 100,000 cells per well in FACS buffer before being washed once more. Cells were then blocked with SLAMF6 ECD-mIgG2a Fc fusion protein at 100 nM or 300 nM for 1 hr for SLAMF6 receptor blocking in 100 μl FACS buffer on ice for 1 hour before being washed. Humanized Hu_1B3 antibody or human IgG1 Isotype control at top concentration of 10 nM and a titration by serial dilution of 1 in 3, was then added to the blocked PBMCs and the cells were incubated for 1 hr on ice before being washed twice. The secondary antibody, goat anti-human-IgG-RPE (Southern Biotech, Ref: 2040-05) at a concentration of 1 μg/mL in FACS buffer, was then applied to the treated cells for 30 minutes on ice. […] Mean fluorescence intensity for the secondary antibody was determined for each sample using an Attune NxT Flow Cytometer (ThermoFischer Scientific) in a 96-well plate format according to industry standard protocols, and the raw data was analyzed using FlowJo analysis software.

[4] = biological target: T1, human SLAMF6 expressed on the cell …; assay: cell-based or functional assay

EC50 (read off the curve) [1]: ~200 pM
B1: parental murine 1B3 antibody (antibody, V domains shown)
VH: QVQLKQSGAELVRPGTSVKVSCKASGYAFTNYLIEWVKQRPGQGLEWIGVINPGSGGTNYNEKFKDKATLTADKSSNTAYMQLSSLTSDDSAVYFCARRGWDYFDYWGQGTTLTVSS
VL: QIVLTQSPALMSTSPGEKVTMTCSASSSVSYIYWFQQKPGSSPKPWIYRTSNLASGVPARFSGSGSGTSYSLTISSMEAEDAATYYCQQWDNNPYTFGGGTKLEIK
notes: also called antibody 1B3; mouse 1B3

Ka [2]: 5.8e+08 M⁻¹
Kd [2]: 1720 pM
koff [2]: 0.000932 s⁻¹
kon [2]: 541000 M⁻¹ s⁻¹
EC50 (read off the curve) [3]: ~400 pM
Granzyme B release from activated T cells (plate-coated antibody plus OKT3, ELISA), EC50 [4]: 0.51 µg/mL
upregulation of intracellular perforin in CD8+ T cells (flow cytometry), EC50 [4]: 0.44 µg/mL
B2: humanised antibody Hu_1B3 (antibody, human IgG1, kappa, L234A L235A, V domains shown)
VH: QVQLVQSGAEVKKPGASVKVSCKASGYAFTNYLIEWVRQAPGQGLEWIGVINPGSGGTNYNEKFQGRVTLTADKSISTAYMELSRLRSDDTAVYYCARRGWDYFDYWGQGTLVTVSS
VL: DIQLTQSPSSLSASVGDRVTITCQASQDVSYIYWYQQKPGKAPKPWIYRTSNLATGVPSRFSGSGSGTDYTFTISSLQPEDIATYYCQQWDNNPYTFGQGTKLEIKR
notes: It was captured or detected with anti-human IgG and compared with a human IgG1 isotype control; also called humanised 1B3 antibody; humanized Hu_1B3 antibody
